According to article PMC11548876:

Key:
[1] = target: CcBurs-α (Cacopsylla chinensis); assay: non-reduced versus reduced SDS-PAGE with western blot; His-tagged subunits expressed separately or co-expressed in HEK293T, collected from the medium and purified on Ni-NTA; 12% SDS-PAGE (non-reduced) and 15% SDS-PAGE (reduced), anti-His blot
[2] = target: CcBurs-β (Cacopsylla chinensis); assay: as above

stoichiometry N [1] | stoichiometry N [2] | Substance
2 |  | CcBurs-α (natural protein)
 | 2 | CcBurs-β (natural protein)
